The results in this text go back to US20220259593A1, “CONTROL OF MAMMALIAN GENE DOSAGE USING CRISPR” (The Regents of the University of California, priority 2019, published 2022).

The data set has as its system K562 CRISPRi cells. In words: Constant region variant library pooled growth screen, K562. Type of data set: cell-based, human. Conditions: sgRNA constant region variants; activity relative to the original, un-modified constant region cr995. In outline:
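K562 CRISPRi, duplicate transductions; puromycin 1 d 0.75 μg/mL then 1 d 0.85 μg/mL; >2000× coverage in spinner flasks; harvests at 4-8 d growth. Activity = phenotype ÷ phenotype with unmodified constant region.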

B1: cr727 (nucleic acid)
guide: GTTTAAGAGCTAAGCTGGAAACAGCATAGCAAGTTTAAATAAGGCTAGTCCGTTATCAACTTGAAAAAGTGTCGCCGAGTCGGCGAT
modifications: listed as DNA, chemistry not fully specified
For B1, the Mean relative activity came out at 1.037.

B2: cr483 (nucleic acid)
guide: GTTTAAGAGCTAAGCTGGAAACAGCATAGCAAGTTTAAATAAGGCTAGTCCGTTATCAACTAGAAATAGTGGCGTCGAGTCGACGCT
modifications: listed as DNA, chemistry not fully specified
B2 showed a Mean relative activity of 1.037.

B3: cr791 (nucleic acid)
guide: GTTTAAGAGCTAAGCTGGAAACAGCATAGCAAGTTTAAATAAAGCTAGTCTGTTATCAACTTGAAAAAGTGGCACCCAGTGGGTGCT
modifications: listed as DNA, chemistry not fully specified
As to B3, the Mean relative activity turned out to be 0.07648.

B4: cr762 (nucleic acid)
guide: GTTTAAGAGCTAAGCTGGAAACAGCATAGCACGTTTAAATAAGGCTAGTCCTTTATCAACTTGAAAAAGTGGCACCGAGTCGGTGCT
modifications: listed as DNA, chemistry not fully specified
The molecule B4 had a Mean relative activity of 0.0885.

B5: cr739 (nucleic acid)
guide: GTTTAAGAGCTAAGCTGGAAACAGCATAGCAACTTTAAATAAGGCTAGTCCGTTATCAACGTGAAAACGTGGCACCGAGTCGGTGCT
modifications: listed as DNA, chemistry not fully specified
In turn, B5 yielded a Mean relative activity of 0.08764.

B6: cr082 (nucleic acid)
guide: CGTTAAGAGCTAAGCTGGAAACAGCATAGCAAGTTTAAATAAGGCTAGTCCGTTATCAACTTGAAAAAGTGGCACCGAGTCGGTGCT
modifications: listed as DNA, chemistry not fully specified
The molecule B6 displayed a Mean relative activity of 0.0741.

B7: cr112 (nucleic acid)
guide: GTTTAAGAGCTAAGCTGGAAACAGCATAGCAAGTTTAAATAAAGTTAATCTGTTATCAATTTGAAAAAATGGCACCGAGTCGGTGCT
modifications: listed as DNA, chemistry not fully specified
As for B7, the Mean relative activity came to 0.0933.

B8: cr467 (nucleic acid)
guide: GTTTAAGAGCTAAGCTGGAAACAGCATAGCAAGCTTAAATAAGGCTAGTCCGTTATCAATTTGAAAAAATGGCACCGAGTCGGTGCT
modifications: listed as DNA, chemistry not fully specified
B8 returned a Mean relative activity of 0.06565.

B9: cr038 (nucleic acid)
guide: GTTTGCGAGCTAAGCTGGAAACAGCATAGCAAGTTTAAATAAGGCTAGTCCGTTATCAACTTGAAAAAGTGGCACCGAGTCGGTGCT
modifications: listed as DNA, chemistry not fully specified
With B9, the Mean relative activity turned out to be 0.07321.

B10: cr582 (nucleic acid)
guide: GTTTAAGAGCTAAGCTGGAAACAGCATAGCAAGTTTAAATACGGCTTGTCCGTTATCAACTTCAAAAAGTGGCACCGAGTCGGTGCT
modifications: listed as DNA, chemistry not fully specified
The molecule B10 yielded a Mean relative activity of 0.07315.

B11: cr298 (nucleic acid)
guide: GTTTAAGAGCTAAGCTGGAAACAGCATAGCAAGTTTAAATAAGGCTAGTCCTTTATCAACTTGAAAAAGTGGCACCGACTCGGTGCT
modifications: listed as DNA, chemistry not fully specified
For the molecule B11, the Mean relative activity is 0.06335.

B12: cr061 (nucleic acid)
guide: GTTCAACAGCTAAGCTGGAAACAGCATAGCAAGTTTAAATAAGGCTAGTCCGTTATCAACTTGAAAAAGTGGCACCGAGTCGGTGCT
modifications: listed as DNA, chemistry not fully specified
As to B12, the Mean relative activity amounted to 0.05691.

B13: cr401 (nucleic acid)
guide: GTTTAAGAGCTAAGCTGGAAACAGCATAGCAAGTTTAAATAAGGCTAGTCCGTTATCAACTTGAAAAAGTGGCTCCGAGTCTGCGCT
modifications: listed as DNA, chemistry not fully specified
Regarding B13, the Mean relative activity was 0.09781.

B14: cr197 (nucleic acid)
guide: GTTTAAGAGCTAAGCTGGAAACAGCATAGCAAGTTTAAATAATGCTAGTCAGTTATCAACTGGAAACAGTGGCACCGAGTCGGTGCT
modifications: listed as DNA, chemistry not fully specified
The molecule B14 registered a Mean relative activity of 0.06436.

B15: cr741 (nucleic acid)
guide: GTTTAAGAGCTAAGCTGGAAACAGCATGGCAAGTTTAAATACGGCTAGACCGTTATCAACTTGAAAAAGTGGCACCGAGTCGGTGCT
modifications: listed as DNA, chemistry not fully specified
For B15, the Mean relative activity is on record as 0.06347.

B16: cr062 (nucleic acid)
guide: GTTCAAGTGCTAAGCTGGAAACAGCATAGCAAGTTTAAATAAGGCTAGTCCGTTATCAACTTGAAAAAGTGGCACCGAGTCGGTGCT
modifications: listed as DNA, chemistry not fully specified
On to B16, for which the Mean relative activity is listed as 0.1003.

B17: cr066 (nucleic acid)
guide: ATTCAAGAGCTAAGCTGGAAACAGCATAGCAAGTTTAAATAAGGCTAGTCCGTTATCAACTTGAAAAAGTGGCACCGAGTCGGTGCT
modifications: listed as DNA, chemistry not fully specified
Consider B17, for which the Mean relative activity was found to be 0.09115.

B18: cr097 (nucleic acid)
guide: GCTTACGAGCTAAGCTGGAAACAGCATAGCAAGTTTAAATAAGGCTAGTCCGTTATCAACTTGAAAAAGTGGCACCGAGTCGGTGCT
modifications: listed as DNA, chemistry not fully specified
For the molecule B18, the Mean relative activity was determined as 0.06585.

B19: cr796 (nucleic acid)
guide: GTTTAAGAGCTAAGCTGGAAACAGCATAGCAAGTTAAAATAAGGCTAGTCCGTTATCAACTTGAAAAAGTGGCACCGAGTCGGTGCT
modifications: listed as DNA, chemistry not fully specified
The molecule B19 yielded a Mean relative activity of 0.096.

B20: cr084 (nucleic acid)
guide: GTCTGAGAGCTAAGCTGGAAACAGCATAGCAAGTTTAAATAAGGCTAGTCCGTTATCAACTTGAAAAAGTGGCACCGAGTCGGTGCT
modifications: listed as DNA, chemistry not fully specified
B20 showed a Mean relative activity of 0.09372.

B21: cr325 (nucleic acid)
guide: GTTTAAGAGCTAAGCTGGAAACAGCATAGCAACTTTAAATAAGGCTAGTCCGTTATCAGCTTGAAAAAGCGGCACCGAGTCGGTGCT
modifications: listed as DNA, chemistry not fully specified
For B21, the Mean relative activity turned out to be 0.09143.

B22: cr438 (nucleic acid)
guide: GTTTAAGAGCTAAGCTGGAAACAGCATAGCCAGTTTAAATACGGCTAGTCCGTTGTCAACTTGAAAAAGTGGCACCGAGTCGGTGCT
modifications: listed as DNA, chemistry not fully specified
For the molecule B22, the Mean relative activity is listed as 0.06886.

B23: cr453 (nucleic acid)
guide: GTTTAAGAGCTAAGCTGGAAACAGCATAGCAAGTTTAACTAAGGCTAGTCCGTTATCAACTTGAAAAAGTGGCACCGAGTCGGTGCT
modifications: listed as DNA, chemistry not fully specified
The molecule B23 registered a Mean relative activity of 0.09528.

B24: cr193 (nucleic acid)
guide: GTTTAAGAGCTAAGCTGGAAACAGCATAGCAAGTTTAAATAAAGCTAGTCTGTTATCAATTTGAAAAAATGCCACCGAGTCGGTGGT
modifications: listed as DNA, chemistry not fully specified
For the molecule B24, the Mean relative activity was found to be 0.06081.

B25: cr513 (nucleic acid)
guide: GTTTAAGAGCTAAGCTGGAAACAGCATAGCAACTTTAAATAAGGCTAGTCCGTTATCACCTTGAAAAAGGGGCACCGAGTCGGTGCT
modifications: listed as DNA, chemistry not fully specified
As to B25, the Mean relative activity is given as 0.0947.

B26: cr514 (nucleic acid)
guide: GTTTAAGAGCTAAGCTGGAAACAGCATAGCAACTTTAAATAAGGCTAGTCCGTTATCAACTTGAAAAAGTGGGACCGAGTCGGTCCT
modifications: listed as DNA, chemistry not fully specified
Consider B26, for which the Mean relative activity stood at 0.05776.

B27: cr985 (nucleic acid)
guide: GTTTAAGAGCTAAGCTGGAAACAGCATAGCAAGTTTAAATAAGGCTAGTCCTTTATCAACTTGAAAAAGTGGCACCGAGTCGGTGCT
modifications: listed as DNA, chemistry not fully specified
Molecule B27 had a Mean relative activity of 0.07562.

B28: cr588 (nucleic acid)
guide: GTTTAAGAGCTAAGCTGGAAACAGCATAGCAACTTTAAATAAGGCTAGTCCGTTATCAACTTGAAAAAGTGGTACCGAGTCGGTACT
modifications: listed as DNA, chemistry not fully specified
The molecule B28 had a Mean relative activity of 0.07507.

B29: cr714 (nucleic acid)
guide: GTTTAAGAGCTAAGCTGGAAACAGCATAGCAAGCTTAAATAAGGCTAGTCCGTTATCAAATTGAAAAATTGGCACCGAGTCGGTGCT
modifications: listed as DNA, chemistry not fully specified
Turning to B29, the Mean relative activity is recorded as 0.09294.
